Measured values as given in PMC4324353 (Journal of molecular biology, 2014).

Molecular target: latrunculin B bound actin (A. castellani actin monomer) (A. castellani)
Test: fluorescence polarisation

| Binder | stoichiometry N |
| --- | --- |
| SD3C (Spir SD and SC reversed around Linker 3) (domain or fragment) PREQLMESIRKGKELKQISDRQLGPPRMCEPSKKDAHAMILEFIRSRPPLKKA | 1 actin monomer per construct |
| SC[gs]D (Spir SC and SD with Linker 3 replaced by five Gly-Ser repeats) (domain or fragment) KKDAHAMILEFIRSRPPLKKAGSGSGSGSGSPREQLMESIRKGKELKQITPPE | 1 actin monomer per construct |
